Changes are numbered by the printed parent chain.
T1: human TL1A extracellular domain with N-terminal HIS and FLAG tag (human, UniProt O95150 72-251)
T1 construct: whole entry named. ~70 kDa fraction purified by gel filtration
T1 sequence: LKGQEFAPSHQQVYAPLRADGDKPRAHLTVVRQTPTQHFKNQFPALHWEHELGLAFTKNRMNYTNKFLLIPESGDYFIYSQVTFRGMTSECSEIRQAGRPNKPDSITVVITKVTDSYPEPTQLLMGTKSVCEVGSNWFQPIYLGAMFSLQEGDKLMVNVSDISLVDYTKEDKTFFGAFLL

T2: human TL1A extracellular domain with N-terminal HIS and FLAG tag (human, UniProt O95150 72-251)
T2 construct: the whole entry is named; also called TNFSF15
T2 sequence: T1 sequence

B1: 320-192 (antibody, human IgG1, name in Kabat numbering, V domains shown)
VH: QVQLVQSGAEVKKPGASVKVSCKASGYTFTSYDINWVRQAPGQGLEWMGWLNPNSGNTGYAQKFQGRVTMTADRSTSTAYMELSSLRSEDTAVYYCAREVPETAAFEYWGQGTLVTVSS
VL: QSVLTQPPSVSGAPGQRVTISCASSSSDIGAGLGVHWYQQLPGTAPKLLIEGYYNRPSGVPDRFSGSKSGTSASLTITGLLPEDEGDYYCQSYDGTLSALFGGGTKLTVLG
notes: human IgG1, lambda
B2: 320-573 (antibody, human IgG1, name in Kabat numbering, V domains shown)
VH: B1 VH with A61Q
VL: B1 VL with A23T
notes: full-length human IgG1, lambda
B3: 320-582 (antibody, human IgG1, name in Kabat numbering, V domains shown)
VH: B1 VH with Y60W
VL: B1 VL with A23T
notes: as for B2
B4: 320-578 (antibody, human IgG1, name in Kabat numbering, V domains shown)
VH: B1 VH with L51Y
VL: B1 VL with A23T
notes: as for B2
B5: 320-579 (antibody, human IgG1, name in Kabat numbering, V domains shown)
VH: B1 VH with N52L
VL: B1 VL with A23T
notes: as for B2
B6: 320-215 (antibody, human IgG1, name in Kabat numbering, V domains shown)
VH: B1 VH
VL: B1 VL with A23T, S25W
notes: human IgG1, lambda
B7: 320-212 (antibody, human IgG1, name in Kabat numbering, V domains shown)
VH: B1 VH
VL: B1 VL with A23T, S25H
notes: human IgG1, lambda
B8: 320-228 (antibody, human IgG1, name in Kabat numbering, V domains shown)
VH: B1 VH
VL: B1 VL with A23T, S27H
notes: human IgG1, lambda
B9: 320-576 (antibody, human IgG1, name in Kabat numbering, V domains shown)
VH: B1 VH with A61K
VL: B1 VL with A23T
notes: as for B2
B10: 320-210 (antibody, human IgG1, name in Kabat numbering, V domains shown)
VH: B1 VH
VL: B1 VL with A23T, S25Q
notes: human IgG1, lambda
B11: 320-580 (antibody, human IgG1, name in Kabat numbering, V domains shown)
VH: B1 VH with G56Y
VL: B1 VL with A23T
notes: as for B2
B12: 320-230 (antibody, human IgG1, name in Kabat numbering, V domains shown)
VH: B1 VH
VL: B1 VL with A23T, S27L
notes: human IgG1, lambda
B13: 320-572 (antibody, human IgG1, name in Kabat numbering, V domains shown)
VH: B1 VH with A61S
VL: B1 VL with A23T
notes: as for B2
B14: 320-217 (antibody, human IgG1, name in Kabat numbering, V domains shown)
VH: B1 VH
VL: B1 VL with A23T, S26A
notes: human IgG1, lambda
B15: 320-227 (antibody, human IgG1, name in Kabat numbering, V domains shown)
VH: B1 VH
VL: B1 VL with A23T, S27D
notes: human IgG1, lambda
B16: 320-196 (antibody, human IgG1, name in Kabat numbering, V domains shown)
VH: B1 VH
VL: B1 VL with A23H
notes: human IgG1, lambda
B17: 320-225 (antibody, human IgG1, name in Kabat numbering, V domains shown)
VH: B1 VH
VL: B1 VL with A23T, S27A
notes: human IgG1, lambda
B18: 320-581 (antibody, human IgG1, name in Kabat numbering, V domains shown)
VH: B1 VH with Y60L
VL: B1 VL with A23T
notes: as for B2
B19: 320-575 (antibody, human IgG1, name in Kabat numbering, V domains shown)
VH: B1 VH with A61H
VL: B1 VL with A23T
notes: as for B2
B20: 320-208 (antibody, human IgG1, name in Kabat numbering, V domains shown)
VH: B1 VH
VL: B1 VL with A23T, S24Y
notes: human IgG1, lambda
B21: 320-214 (antibody, human IgG1, name in Kabat numbering, V domains shown)
VH: B1 VH
VL: B1 VL with A23T, S25L
notes: human IgG1, lambda
B22: 320-216 (antibody, human IgG1, name in Kabat numbering, V domains shown)
VH: B1 VH
VL: B1 VL with A23T, S25Y
notes: human IgG1, lambda
B23: 320-222 (antibody, human IgG1, name in Kabat numbering, V domains shown)
VH: B1 VH
VL: B1 VL with A23T, S26L
notes: human IgG1, lambda
B24: 320-574 (antibody, human IgG1, name in Kabat numbering, V domains shown)
VH: B1 VH with A61D
VL: B1 VL with A23T
notes: as for B2
B25: 320-220 (antibody, human IgG1, name in Kabat numbering, V domains shown)
VH: B1 VH
VL: B1 VL with A23T, S26H
notes: human IgG1, lambda
B26: 320-577 (antibody, human IgG1, name in Kabat numbering, V domains shown)
VH: B1 VH with L51A
VL: B1 VL with A23T
notes: as for B2
B27: 320-223 (antibody, human IgG1, name in Kabat numbering, V domains shown)
VH: B1 VH
VL: B1 VL with A23T, S26W
notes: human IgG1, lambda
B28: 320-224 (antibody, human IgG1, name in Kabat numbering, V domains shown)
VH: B1 VH
VL: B1 VL with A23T, S26Y
notes: human IgG1, lambda
B29: 320-204 (antibody, human IgG1, name in Kabat numbering, V domains shown)
VH: B1 VH
VL: B1 VL with A23T, S24H
notes: human IgG1, lambda
B30: 320-206 (antibody, human IgG1, name in Kabat numbering, V domains shown)
VH: B1 VH
VL: B1 VL with A23T, S24L
notes: human IgG1, lambda
B31: 320-200 (antibody, human IgG1, name in Kabat numbering, V domains shown)
VH: B1 VH
VL: B1 VL with A23Y
notes: human IgG1, lambda
B32: 320-195 (antibody, human IgG1, name in Kabat numbering, V domains shown)
VH: B1 VH
VL: B1 VL with A23D
notes: human IgG1, lambda
B33: 320-571 (antibody, human IgG1, name in Kabat numbering, V domains shown)
VH: B1 VH with Y60K
VL: B1 VL with A23T
notes: as for B2

Legend:
[1] = target: T1, human TL1A extracellular domain with …; test: SPR run 2; supernatant on Protein A; TL1A 10 ug/mL; timepoint 44
Text: (§1) 1.5. Antibody expression and antigen binding as determined by SPR. Using a CM5 sensor chip (GE Healthcare) Protein A (Pierce) was coupled to the chip surface using an amine coupling kit (GE Healthcare). Protein A was coupled on flow cell 1 and 2 (or alternatively 3 and 4) using a BIACORE® T200. […] The amount of supernatant or purified protein (as well as the concentration) injected during the capture stage varied between runs and is specified in the header of the Tables 3-11. At the end of injection of the supernatant or purified antibody the change in response units was measured. This value was reported as Capture Level in Tables 3-11. […] The response units were measured prior to the end of the dissociation phase. […] The sensorgrams were double referenced (flow cell 2 is subtracted from flow cell 1 and a buffer blank). As there were a large number of antibody variants to screen, these were screened across different runs (Tables 3-11). […] A summary of the conditions used in each run is below:
(§2) 2.1. […] In some experiment the antibodies were purified using Protein A chromatography (See 1.4) and purified antibodies were used in BIACORE® (GE Healthcare) experiments.

[2] = target: T1, human TL1A extracellular domain with …; test: SPR run 2; supernatant on Protein A; TL1A 10 ug/mL; timepoint 220
Text: as §1, §2

[3] = target: T2, human TL1A extracellular domain with …; test: SPR Run 7, antibody on Protein A, TL1A 5 ug/mL, timepoint 220
Outline: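 The capture level was the response change at the end of loading, which varied by run. Antigen response was read before dissociation ended, double-referenced against a reference flow cell and a buffer blank.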

[4] = target: T2, human TL1A extracellular domain with …; test: SPR Run 7, antibody on Protein A, TL1A 5 ug/mL, timepoint 44
Outline: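 Biacore T200 SPR with antibody (supernatant or Protein A-purified) captured on Protein A amine-coupled to a CM5 chip; capture level recorded as response change at end of capture.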

Binder | TL1A Binding Level (Early) [1] [RU] | TL1A Binding Level (Late) [2] [RU] | TL1A Binding Level (Late) [3] [RU] | TL1A Binding Level (Early) [4] [RU]
B1 | 238 | 218 |  | 
B2 |  |  | 62 | 67
B3 |  |  | 52 | 67
B4 |  |  | 77 | 83
B5 |  |  | 41 | 46
B6 | 220 | 199 |  | 
B7 | 226 | 205 |  | 
B8 | 259 | 235 |  | 
B9 |  |  | 83 | 90
B10 | 225 | 202 |  | 
B11 |  |  | 47 | 51
B12 | 245 | 223 |  | 
B13 |  |  | 90 | 98
B14 | 258 | 235 |  | 
B15 | 242 | 218 |  | 
B16 | 250 | 228 |  | 
B17 | 267 | 243 |  | 

Binder | TL1A Binding Level (Early) [1] [RU] | TL1A Binding Level (Late) [2] [RU] | TL1A Binding Level (Late) [3] [RU] | TL1A Binding Level (Early) [4] [RU]
B18 |  |  | 65 | 70
B19 |  |  | 110 | 121
B20 | 222 | 199 |  | 
B21 | 221 | 196 |  | 
B22 | 171 | 147 |  | 
B23 | 156 | 96 |  | 
B24 |  |  | 130 | 140
B25 | 253 | 230 |  | 
B26 |  |  | 90 | 98
B27 | 143 | 66 |  | 
B28 | 198 | 153 |  | 
B29 | 193 | 155 |  | 
B30 | 257 | 235 |  | 
B31 | 251 | 231 |  | 
B32 | 249 | 227 |  | 
B33 |  |  | 72 | 78
